The results in this text go back to the supplement of paper PMC10567573.

First the molecules themselves.
B1: HSP90AB1 (parent)
chain: TLRQKAEADKNDKAVKDLVVLLFE
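Note: lentivirally expressed fusions sorted by FACS into six bins by GFP to DsRed ratio, PSI derived from sequencing read proportions per bin multiplied by bin number.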

Variants of B1 are the subject of the data set. Kind of data set: protein stability index of a GFP-peptide fusion (GPS, HEK-293T) (PSI 1-6); higher = more stable. The note with it: c terminus: a fixed tail appended.
In the case of TLRQKAEADKNDKAVKDLVVLLLE [F23L], the protein stability index came out at 3.27.
The same measure for TLRQKAEADKNDKAVKDLVVLLIE [F23I]: 2.88.
Next, TLRQKAEADKNDKAVKDLVVLLDE [F23D]: 5.38; TLRQKAEADKNDKAVKDLVVLLYE [F23Y]: 3.47.
On to TLRQKAEADKNDKAVKDLVVLLSE [F23S], for which the protein stability index was 3.95.
The same measure for TLRQKAEADKNDKAVKDHVVLLFE [L18H]: 3.3.
Next, TLRQKAEADKNDKAVKDCVVLLFE [L18C]: 2.85; TLRQKAEADKNDKAVKDYVVLLFE [L18Y]: 2.87; TLRQKAEADKNDKAVKDMVVLLFE [L18M]: 3.29.
Next, TLRQKAEADKNDKAVKDPVVLLFE [L18P]: 4.21; TLRQKAEADKNDKAVKDWVVLLFE [L18W]: 3.19.
TLRQKAEADKNQKAVKDLVVLLFE [D12Q]: the protein stability index worked out at 2.7.
The same measure for TLRQKAEADKNEKAVKDLVVLLFE [D12E]: 2.95; for TLRQKAEADKNRKAVKDLVVLLFE [D12R]: 3.48.
Regarding TLRQKAEADKNDKNVKDLVVLLFE [A14N], the protein stability index amounted to 2.56.
For the variant TLRQKAEADKNDKCVKDLVVLLFE [A14C], the protein stability index was determined as 2.35.
Next, TLRQKAEADKNDKEVKDLVVLLFE [A14E]: 3.64; TLRQKAEADKNDKVVKDLVVLLFE [A14V]: 2.44.
The same measure for TLRQKAEADKNDKTVKDLVVLLFE [A14T]: 2.57; for TLRQKAERDKNDKAVKDLVVLLFE [A8R]: 2.87.
Consider TLRQKAEDDKNDKAVKDLVVLLFE [A8D], for which the protein stability index came to 3.57.
The same measure for TLRQKAEGDKNDKAVKDLVVLLFE [A8G]: 3.9; for TLRQKAEFDKNDKAVKDLVVLLFE [A8F]: 2.89.
Next, TLRQKAECDKNDKAVKDLVVLLFE [A8C]: 2.87; TLRQKAENDKNDKAVKDLVVLLFE [A8N]: 3.35; TLRAKAEADKNDKAVKDLVVLLFE [Q4A]: 2.63.
Next, TLRPKAEADKNDKAVKDLVVLLFE [Q4P]: 3.06; TLRWKAEADKNDKAVKDLVVLLFE [Q4W]: 2.71.
With TLRIKAEADKNDKAVKDLVVLLFE [Q4I], the protein stability index stood at 2.41.
Next, TLRQKAEADKNDKAVKDLPVLLFE [V19P]: 4.38.
Next, TLRQKAEADKNDKAVKDLNVLLFE [V19N]: 3.91; TLRQKAEADKNDKAVKDLAVLLFE [V19A]: 3.72; TLRQKAEADKNDKAVKDLIVLLFE [V19I]: 3.5.
Next, TLRQMAEADKNDKAVKDLVVLLFE [K5M]: 3.48; TLRQEAEADKNDKAVKDLVVLLFE [K5E]: 3.38; TLRQRAEADKNDKAVKDLVVLLFE [K5R]: 3.
TLRQFAEADKNDKAVKDLVVLLFE [K5F]: the protein stability index amounted to 2.75.
Next, TLRQSAEADKNDKAVKDLVVLLFE [K5S]: 3.36.
Take TLRQKAEADKNDKAVKDLVCLLFE [V20C]: the protein stability index amounted to 3.53.
The same measure for TLRQKAEADKNDKAVKDLVALLFE [V20A]: 4.47.
The same measure for TLRQKAEADKNDKATKDLVVLLFE [V15T]: 3.11; for TLRQKAEADKNDKARKDLVVLLFE [V15R]: 2.49; for TLRQKAEADKNDKASKDLVVLLFE [V15S]: 3.09.
The same measure for TLRQKAMADKNDKAVKDLVVLLFE [E7M]: 2.48.
In the case of TLRQKAPADKNDKAVKDLVVLLFE [E7P], the protein stability index stood at 2.58.
With TLRQKAIADKNDKAVKDLVVLLFE [E7I], the protein stability index amounted to 2.63.
Consider TLRQKAEADKNDKAVKDLVVELFE [L21E], for which the protein stability index is 3.98.
For TLRQKAEADKNDKAVKDLVVSLFE [L21S], the protein stability index was 3.44.
Next, ALRQKAEADKNDKAVKDLVVLLFE [T1A]: 3.35.
For TLRQKAEADKNDKAVKDLVVLKFE [L22K], the protein stability index turned out to be 4.47.
The same measure for TLRQKAEADKNDKAVKDLVVLQFE [L22Q]: 4.84.
Next, TLRQKAEADKNDKAVKDLVVLRFE [L22R]: 3.9.
Regarding TVRQKAEADKNDKAVKDLVVLLFE [L2V], the protein stability index amounted to 3.15.
In the case of TNRQKAEADKNDKAVKDLVVLLFE [L2N], the protein stability index is 2.79.
The same measure for TFRQKAEADKNDKAVKDLVVLLFE [L2F]: 2.65; for TLRQKAEADKNDKAVNDLVVLLFE [K16N]: 3.44.
Turning to TLRQKAEADKNDKAVCDLVVLLFE [K16C], the protein stability index amounted to 2.19.
The same measure for TLRQKAEADKNDKAVEDLVVLLFE [K16E]: 3.06; for TLRQKAEADKEDKAVKDLVVLLFE [N11E]: 3.21; for TLRQKAEADKKDKAVKDLVVLLFE [N11K]: 2.43.
Turning to TLRQKAEADKSDKAVKDLVVLLFE [N11S], the protein stability index amounted to 2.95.
The same measure for TLRQKAEADKNDEAVKDLVVLLFE [K13E]: 3.39.
The same measure for TLRQKAEADKNDNAVKDLVVLLFE [K13N]: 2.85; for TLRQKAEADKNDYAVKDLVVLLFE [K13Y]: 2.2; for TLRQKAEADKNDIAVKDLVVLLFE [K13I]: 2.47.
As to TLRQKREADKNDKAVKDLVVLLFE [A6R], the protein stability index worked out at 2.69.
On to TLRQKAEADRNDKAVKDLVVLLFE [K10R], for which the protein stability index stood at 3.29.
Next, TLRQKAEADINDKAVKDLVVLLFE [K10I]: 3.06.
The same measure for TLRQKAEADLNDKAVKDLVVLLFE [K10L]: 2.61; for TLRQKAEADPNDKAVKDLVVLLFE [K10P]: 3.68.
The same measure for TLRQKAEADKNDKAVKDLVVLLFM [E24M]: 1.83; for TLRQKAEADKNDKAVKDLVVLLFC [E24C]: 1.43.
For TLRQKAEADKNDKAVKDLVVLLFF [E24F], the protein stability index was determined as 1.83.
The same measure for TLGQKAEADKNDKAVKDLVVLLFE [R3G]: 2.72.
Next, TLCQKAEADKNDKAVKDLVVLLFE [R3C]: 2.75; TLTQKAEADKNDKAVKDLVVLLFE [R3T]: 3.59; TLEQKAEADKNDKAVKDLVVLLFE [R3E]: 3.17.
Next, TLKQKAEADKNDKAVKDLVVLLFE [R3K]: 3.36.
In the case of TLFQKAEADKNDKAVKDLVVLLFE [R3F], the protein stability index turned out to be 2.8.
The same measure for TLAQKAEADKNDKAVKDLVVLLFE [R3A]: 3.46.
The same measure for TLRQKAEAKKNDKAVKDLVVLLFE [D9K]: 2.51; for TLRQKAEAVKNDKAVKDLVVLLFE [D9V]: 2.38; for TLRQKAEAGKNDKAVKDLVVLLFE [D9G]: 3.17.
Next, TLRQKAEAHKNDKAVKDLVVLLFE [D9H]: 2.95; TLRQKAEASKNDKAVKDLVVLLFE [D9S]: 2.92.
Consider TLRQKAEAFKNDKAVKDLVVLLFE [D9F], for which the protein stability index stood at 2.52.
The same measure for TLRQKAEAIKNDKAVKDLVVLLFE [D9I]: 2.26.
Regarding TLRQKAEADKNDKAVKNLVVLLFE [D17N], the protein stability index was 2.69.
The same measure for TLRQKAEADKNDKAVKWLVVLLFE [D17W]: 2.62.
Next, TLRQKAEADKNDKAVKTLVVLLFE [D17T]: 1.95; TLRQKAEADKNDKAVKRLVVLLFE [D17R]: 1.98; TLRQKAEADKNDKAVKHLVVLLFE [D17H]: 2.52.
Next, TLRQKAEADKNDKAVKVLVVLLFE [D17V]: 1.6; TLRQKAEADKNDKAVKELVVLLFE [D17E]: 2.96.
